“Also recorded” adds a separate entry of the source.
Tests used:
[1] = molecular target: chicken brain-derived polysialylated neural cell adhesion molecule (NCAM) (chicken) (UniProt P13590); test: ELISA, NCAM coated on the plate, ch735 titrated (x axis 'ch735 [ng/mL]'), HRP secondary, Abs450
[2] = molecular target: chicken brain-derived polysialylated neural cell adhesion molecule (NCAM) (chicken) (UniProt P13590); test: ELISA, chicken brain NCAM coated on the plate, ch735 titrated, anti-human IgG secondary, Abs370
[3] = molecular target: chicken brain-derived polysialylated neural cell adhesion molecule (NCAM) (chicken) (UniProt P13590); test: SPR (Biacore 3000), antibody captured on Protein A chip, NCAM 0.25-250 nM in solution, equilibrium fit with Hill slope
[4] = molecular target: chicken brain-derived polysialylated neural cell adhesion molecule (NCAM) (chicken) (UniProt P13590); test: ELISA, chicken brain NCAM coated on the plate, mo735 titrated, anti-mouse IgG secondary, Abs370
NCAM = NCAM (Homo sapiens, UniProt P13591); details: Target NCAM; literature; cited from earlier work
[5] = Nagae et al.; cited from earlier work
[6] = test system: MCF7 (polySia negative externally) cells; test: Internalization of scFv735, MCF7; format: cell-based, human; details: MCF7, 2 hours, 0-1,000 nM
Excerpt: (§1) FIG. 15 depicts cellular internalization of a polySia-specific single-chain Fv (scFv735) constructed by genetically fusing together the DNA encoding the variable heavy (VH) and variable light (VL) genes derived from mo735 with a flexible GlySer linker.
(§2) A polySia-specific single-chain […] (scFV735) was constructed by genetically fusing together the DNA encoding the variable heavy (VH) and variable light (VL) genes derived from mo735 with a flexible GlySer linker. Alexa Fluor 488 labeled scFv735 was incubated with SW2 (polySia positive externally) and MCF7 (polySia negative externally) cells for 2 hours at different concentrations ranging from 0-1,000 nM at either 4° C. or 37° C. (internalization). After incubation, the cells were washed and extracellular fluorescence was quenched with 0.2% Trypan Blue. Intracellular Fluoresence (geometric mean fluorescence intensity, MFI) indicative of internalized scFv735 was measured by flow cytometery.

[7] = test system: SW2 (polySia positive externally) cells; test: Internalization of scFv735, SW2; format: cell-based, human
Excerpt: as §1, §2

B1: chimeric human IgG1 mAb ch735 (antibody, V domains shown)
VH: QIQLQQSGPELVRPGASVKISCKASGYTFTDYYIHWVKQRPGEGLEWIGWIYPGSGNTKYNEKFKGKATLTVDTSSSTAYMQLSSLTSEDSAVYFCARGGKFAMDYWGQGTSVTVSS
VL: DVVMTQTPLSLPVSLGDQASISCRSSQSLVHSNGNTYLYWYLQKPGQSPKPLIYRVSNRFSGVPDRFSGSGSGTDFTLKISRVEAEDLGVYFCFQGTHVPYTFGGGTRLEIK
B1 showed an EC50 (read off the curve) [1] of 10 ng/mL, an EC50 (read off the curve) [2] of 10 ng/mL and a Kd [3] of 4.79 nM.

B2: mouse IgG2a mAb 735 (mo735) (antibody, V domains shown)
VH: B1 VH
VL: B1 VL
B2 gave an EC50 (read off the curve) [4] of 10 ng/mL and a Kd [3] of 10.2 nM.

B3: Lorvotuzumab DM1: CD56-targeting antibody-drug conjugate, literature (conjugate, chains of the INN, looked up)
VH: QVQLVESGGGVVQPGRSLRLSCAASGFTFSSFGMHWVRQAPGKGLEWVAYISSGSFTIYYADSVKGRFTISRDNSKNTLYLQMNSLRAEDTAVYYCARMRKGYAMDYWGQGTLVTVSS
VL: DVVMTQSPLSLPVTLGQPASISCRSSQIIIHSDGNTYLEWFQQRPGQSPRRLIYKVSNRFSGVPDRFSGSGSGTDFTLKISRVEAEDVGVYYCFQGSHVPHTFGQGTKVEIK
modifications: DM1 mertansine payload
notes: CD56-targeting antibody-drug conjugate, literature
For B3, the EC50 (NCAM) is given as 0.2 to 5 nM.

B4: scFv735: polySia-specific single-chain Fv fusing VH and VL of mo735 with a flexible GlySer linker (protein)
scFv: DVVMTQTPLSLPVSLGDQASISCRSSQSLVHSNGNTYLYWYLQKPGQSPKPLIYRVSNRFSGVPDRFSGSGSGTDFTLKISRVEAEDLGVYFCFQGTHVPYTFGGGTRLEIKGGGGSGGGGSGGGGSQIQLQQSGPELVRPGASVKISCKASGYTFTDYYIHWVKQRPGEGLEWIGWIYPGSGNTKYNEKFKGKATLTVDTSSSTAYMQLSSLTSEDSAVYFCARGGKFAMDYWGQGTSVTVSS
For B4, the “degree of polymerization (DP) of shorter sialic acids bound” value [5] is listed as ~3, the “internalization (intracellular fluorescence)” value (shortened to “internalization”) [6] is listed as “not” and the “internalization” value ([7]; SW2, 2 hours, 0-1,000 nM, 37° C.) is listed as “observed to internalize; also recorded: increase with increasing concentration”. For the same molecule, the “internalization” value ([7]; temperature reduced to 4° C.) was “blocked”.

Reference: patent US20200277405A1, “COMPOSITION FOR ANTIBODY-DRUG CONJUGATE DIRECTED AGAINST TUMOR-CELL ASSOCIATED POLYSIALIC ACID” (Cornell University, priority 2019, published 2020)
